Sequences and labels used below:
B1: anti-α-cobratoxin VHH C20 (VHH)
VHH: QVKLEESGGGLVQPGGSLRLSCVGSGSISSFNGMGWYRQVPGKQRELVAFISSGGRSKYTDSVKGRFTISGDNAKSTVYLQMINLKPEDTAVYYCNVGSVLSYVTGNYYEPSDYWGQGTQVTVSS
B2: anti-α-cobratoxin VHH C2 (VHH)
VHH: QVKLEESGGGLVLPGGSLRLSCAASGSISSIYAMGWYRQAPGKQREVVAVITNGNSPNYADSVKGRFTISRDNAKNTVYLQMNSLKPEDTAVYYCNVEGVRYGDSWYDGDYWGQGTQVTVSS
B3: anti-α-cobratoxin VHH C43 (VHH)
VHH: RVKLEESGGGLVQAGGSLRLSCAVSGSTFDDYAIGWYRQAPGKQREVVAVITNGNSPNYADSVKGRFTISRDNAKNTVYLQMNSLKPEDTAVYYCNVEGVRYGDSWYDGDYWGQGTQVTVSS
B4: anti-α-cobratoxin VHH C19 (VHH)
VHH: QVKLEESGGGLAQAGGSLRLSCIGSGDISSFNAMGWYRQVPGKQRELVAFISSGGRSKYTDSVKGRFTISGDNAKNTVYLQMIDLKPEDTAVYYCNAGSVVSYETGNYYEPSNYWGQGTQVTVSS

The target of this experiment is α-cobratoxin (Naja kaouthia, UniProt P01391).
Chain of α-cobratoxin (P01391 whole entry): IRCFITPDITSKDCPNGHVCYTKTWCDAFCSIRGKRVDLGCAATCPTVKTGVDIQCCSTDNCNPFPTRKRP
For the molecule B1, the equilibrium dissociation constant (Kd) stood at 1 nM, the koff turned out to be 0.0017 s⁻¹ and the on-rate (kon) came to 1.8e+06 M⁻¹ s⁻¹.

Regarding B2, the affinity, expressed as Kd, was 0.4 nM; the koff turned out to be 0.00019 s⁻¹; the on-rate (kon) turned out to be 520000 M⁻¹ s⁻¹.

The molecule B3 showed a Kd of 24 nM, a koff of 0.0068 s⁻¹ and a kon of 290000 M⁻¹ s⁻¹.

B4 came in with a Kd of 25 nM, a koff of 0.01 s⁻¹ and a kon of 580000 M⁻¹ s⁻¹.

In general, Kd refers to the concentration at which binding is half-saturated. A high value points to lower affinity. As a reminder, the koff is the first-order rate constant of dissociation. High values mean fast dissociation, low ones slow dissociation. In general, kon refers to the rate constant with which the complex forms. Read a low kon as slow association.

Values taken from US20120003245A1 (UNIVERSITY OF GUELPH, published 2012).
